For assay [1], the target named is recombinant extracellular alpha-3 domain of MICA (allele 001), His-tagged, Baculovirus/Sf9 expressed (human) (UniProt Q29983). Nature of the assay: Bio-Layer Interferometry (Octet RED96), antibody captured by anti-mouse IgG, antigen in solution, pH 7.4, 1:1 model.
In assay [2] the target is soluble MICB (sMICB) shed from prostate cancer DU-145 cells (human) (UniProt Q29980). Briefly: subtractive immunoprecipitation from DU-145 conditioned medium with antibody on Protein G beads, remaining sMICB by MICB ELISA, against isotype controls.
For assay [3], the target named is T1, recombinant extracellular alpha-3 domain of MICA (allele 001), His-tagged, Baculovirus/Sf9 expressed (human, UniProt Q29983 205-297).
T1 construct: also called MICA alpha-3 recombinant antigen; alpha-3 domain MICA immunogen
T1 sequence: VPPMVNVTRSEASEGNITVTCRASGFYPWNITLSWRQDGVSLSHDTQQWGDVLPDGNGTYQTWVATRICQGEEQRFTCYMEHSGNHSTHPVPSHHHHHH
Nature of the assay: Bio-Layer Interferometry (Octet RED96), antibody captured by anti-mouse IgG, antigen in solution, pH 7.4, 1:1 model. As for the experimental part:
Biomolecular interactions between MICA alpha-3 recombinant antigen and test antibody were directly measured by Bio-Layer Interferometry (BLI) using a Pall ForteBio Octet RED96 machine (Pall ForteBio, CA, USA). Real-time kinetic analyses were performed on the test MICA monoclonal antibody 5C9, as well as two control antibodies, one of which could bind the alpha-3 MICA subdomain antigen (positive control) and one of which could not (negative control), as previously determined by ELISA. The Octet RED96 apparatus operates under the principle of Bio-Layer Interferometry, a label-free technique that measures molecular interactions and complex formation. A key component of the technique is the optical biosensor whose tip is immersed in the fluids of the test well and then used to assay interference patterns between waves of light. Here, the ligand (monoclonal antibody) is localized to the surface of the biosensor through capture by previously bound anti-mouse IgG, while the analyte biomolecule (antigen) is kept in solution. Binding responses between ligand and analyte were measured and reported in real-time. Both association and dissociation kinetics were monitored and KD values were calculated. This model assumed a 1:1 interaction of ligand to analyte.

From patent publication US20190248901A1 (NOVELOGICS BIOTECHNOLOGY, published 2019) come the findings set out here.

Chain of soluble MICB (sMICB) shed from prostate cancer DU-145 cells (human) (Q29980 23-309): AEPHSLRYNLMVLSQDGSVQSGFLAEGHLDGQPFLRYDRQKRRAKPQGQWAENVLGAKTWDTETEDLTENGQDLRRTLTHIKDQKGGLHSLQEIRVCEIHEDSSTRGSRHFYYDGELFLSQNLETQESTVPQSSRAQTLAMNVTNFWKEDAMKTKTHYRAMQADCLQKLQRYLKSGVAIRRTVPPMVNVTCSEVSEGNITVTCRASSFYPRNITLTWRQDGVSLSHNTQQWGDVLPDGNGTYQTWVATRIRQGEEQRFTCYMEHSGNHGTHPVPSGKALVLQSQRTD

On to “negative control antibody of the Bio-Layer Interferometry analysis”, for which, in assay [1], the Kd turned out to be 9600 nM.
As for “BAMO3, MIC alpha-3 specific murine IgG2a monoclonal antibody (MBL International)”, in assay [1], the Kd is 6 nM. The molecule also came in with a reduction of the amount of sMICB in the sample in assay [2] of 83%.

B1: monoclonal antibody 5C9 (antibody, V domains shown)
VH: QVQLQQSGAELVRPGTSVKVSCKASGYAFTNYLIEWVKQRPGQGLEWIGLIYPGSGGTNYNEKFKGKATLTADKSSSTAYMQLSSLTSDDSAVYFCARIYYGNRDYGMDYWGQGTSVTVSS
VL: MTQTPLSLPVSLGDQASISCRSSQSIVHSNGNTYLEWYLQKPGQSPKLLIYKVSNRFSGVPDRFSGSGSGTDFTLKISRVEAEDLGVYYCFQGSHVPFTFGSGTKLEIK
notes: Mouse hybridoma antibody; Used as hybridoma supernatant in the screening and immunoprecipitation assays; also called mAb 5C9; antibody from hybridoma clone 5C9
For B1, in assay [3], the Kd is around 3.3 nM.
